Assay results published in PMC12591191, “SIRT6 Lysine‐Demyristoylates ATF2 to Ameliorate Vascular Injury via PRKCD/VE‐Cadherin Pathway Regulating Vascular Endothelial Barrier” (Advanced Science, 2025).
Where no end group is shown, it is not given here. The star is where a group is joined. Biotin = O=C1N[C@H]2[C@H](CS[C@H]2CCCCC(=O)*)N1; Myristoyl = CCCCCCCCCCCCCC(=O)*

Assays:
Assay in all cases: BLI; Octet Red96, 96 well plates, PBS-T buffer (1X PBS, 0.05% tween-20); 120 µM biotinylated peptide attached to the sensor; analytes (SIRT6/SIRT6 mutants) from 0.18 to 5.5 µM; also run with cofactors (5 mM Mg2+, Zn2+, ATP, ADP, AMP, cAMP, NAD+)
Details in all cases: both partners purified
SIRT6 H133Y = molecular target: T1, SIRT6 H133Y (human, UniProt Q8N6T7 1-355, H133Y)
T1 construct: human SIRT6, full length (1-355aa), pET28a-SIRT6H133Y; also called dSIRT6; dSIRT6 (H133Y); source: E. coli ArcticExpress (DE3), purified (Ni Sepharose); not shown: His-tag, N-terminal, kept; Flag, C-terminal, kept

[1] = molecular target: T2, Wild-type SIRT6 (Sirtuin 6) (human, UniProt Q8N6T7 1-355)
T2 construct: human SIRT6, full length (1-355aa), from pUC57-SIRT6 into pET28a; no tag cleavage is described; also called SIRT6 WT; source: E. coli ArcticExpress (DE3), purified (Ni Sepharose); not shown: His-tag, N-terminal, kept; Flag, C-terminal, kept

SIRT6 R65A = molecular target: T3, SIRT6 R65A (human, UniProt Q8N6T7 1-355, R65A)
T3 construct: human SIRT6, full length (1-355aa), pET28a-SIRT6R65A; also called dSIRT6 variant; source: E. coli ArcticExpress (DE3), purified (Ni Sepharose); not shown: His-tag, N-terminal, kept; Flag, C-terminal, kept

SIRT6 S56Y = molecular target: T4, SIRT6 S56Y (human, UniProt Q8N6T7 1-355, S56Y)
T4 construct: human SIRT6, full length (1-355aa), pET28a-SIRT6S56Y; also called dSIRT6 variant; source: E. coli ArcticExpress (DE3), purified (Ni Sepharose); not shown: His-tag, N-terminal, kept; Flag, C-terminal, kept
T4 sequence (Q8N6T7 whole entry S56Y): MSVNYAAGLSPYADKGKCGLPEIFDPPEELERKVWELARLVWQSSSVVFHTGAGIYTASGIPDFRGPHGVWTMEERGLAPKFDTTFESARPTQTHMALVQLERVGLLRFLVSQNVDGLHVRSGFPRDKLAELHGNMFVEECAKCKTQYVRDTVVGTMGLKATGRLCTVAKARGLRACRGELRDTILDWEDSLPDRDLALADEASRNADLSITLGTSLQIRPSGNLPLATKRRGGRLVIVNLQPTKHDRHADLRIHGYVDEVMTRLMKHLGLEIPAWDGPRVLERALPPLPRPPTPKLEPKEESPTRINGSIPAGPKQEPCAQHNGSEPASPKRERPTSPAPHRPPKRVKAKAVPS

T1 sequence (Q8N6T7 whole entry H133Y): as the sequence (Q8N6T7 whole entry S56Y) above, with Y56S, H133Y counted along it
T2 sequence (Q8N6T7 whole entry): as the sequence (Q8N6T7 whole entry S56Y) above, with Y56S counted along it
T3 sequence (Q8N6T7 whole entry R65A): as the sequence (Q8N6T7 whole entry S56Y) above, with Y56S, R65A counted along it

B1: B-H3K9^Myr-5R (biotin-KQTARK^MyrSTGGKARRRRR) (peptide)
peptide: Biotin-KQTARK(Myristoyl)STGGKARRRRR
notes: histone H3 N-terminal stretch around K9; five arginine residues added at the C-terminus so that the peptide is soluble in water; also called myristoylated peptide; source: synthetic peptide (Boster Biological Technology)
SIRT6 H133Y
  binding result: binds
[1]
  Kd: 8.1 ± 0.96 µM
SIRT6 R65A
  binding result: binds
SIRT6 S56Y
  binding result: binds
